Each block holds one molecule with its values, some of them ahead of it.
How the values were obtained:
[1] = target: c-Jun (recombinant: overexpressed in 293T cells or in vitro translated); assay: cell-based or functional assay
c-Jun/c-Fos AP-1 complex = assay: cell-based or functional assay
[2] = target: endogenous KRC of EL4 T cells (UniProt A2A884 1-2348, limits assumed); assay: anti-c-Jun IP from PMA/ionomycin-stimulated EL4 cells, blot with anti-KRC antisera
Method: (§1) FIG. 21(A) 293T cells were transfected with c-Jun and myc-KRCtr. 48 hours later, lysates were immunoprecipitated with anti-Myc antibody. Immunoprecipitates were probed by western blotting with anti-c-Jun antibody. FIG. 21(B) (left panel) 293T cells were cotransfected with c-Jun and full length His-KRC. 48 hours later, lysates were immunoprecipitated with anti-His antibody (DE8 Omniprobe) and precipitates were probed by western blotting with anti-c-Jun antibody. (right panel) In vitro translated and S35-labelled c-Jun and His-KRCtr were mixed and immunoprecipitated with anti-His antibody. Recovered c-Jun protein was visualized by autoradiography. FIG. 21(C) Jurkat or EL4 T cells were stimulated with PMA plus ionomycin for 45 minutes. Lysates were immunoprecipitated with anti-c-Jun antibody, and immunoprecipitates were probed with specific anti-KRC rabbit antisera. FIG. 21(D) (upper panel) 293T cells were transfected with AP-1 Luciferase along with c-Jun, c-Fos, and KRC. 24 hours later, Luciferase activity was determined as above. […] 24 hours later, luciferase activity was determined as above. […]

[3] = target: T1, endogenous KRC of Jurkat T cells (human, UniProt Q5T1R4 1-2406, limits assumed); assay: anti-c-Jun IP from PMA/ionomycin-stimulated Jurkat cells, blot with anti-KRC antisera
T1 construct: Detected with anti-KRC rabbit antisera in anti-c-Jun immunoprecipitates
Method: as §1

Sequence of endogenous KRC of EL4 T cells (A2A884 whole entry): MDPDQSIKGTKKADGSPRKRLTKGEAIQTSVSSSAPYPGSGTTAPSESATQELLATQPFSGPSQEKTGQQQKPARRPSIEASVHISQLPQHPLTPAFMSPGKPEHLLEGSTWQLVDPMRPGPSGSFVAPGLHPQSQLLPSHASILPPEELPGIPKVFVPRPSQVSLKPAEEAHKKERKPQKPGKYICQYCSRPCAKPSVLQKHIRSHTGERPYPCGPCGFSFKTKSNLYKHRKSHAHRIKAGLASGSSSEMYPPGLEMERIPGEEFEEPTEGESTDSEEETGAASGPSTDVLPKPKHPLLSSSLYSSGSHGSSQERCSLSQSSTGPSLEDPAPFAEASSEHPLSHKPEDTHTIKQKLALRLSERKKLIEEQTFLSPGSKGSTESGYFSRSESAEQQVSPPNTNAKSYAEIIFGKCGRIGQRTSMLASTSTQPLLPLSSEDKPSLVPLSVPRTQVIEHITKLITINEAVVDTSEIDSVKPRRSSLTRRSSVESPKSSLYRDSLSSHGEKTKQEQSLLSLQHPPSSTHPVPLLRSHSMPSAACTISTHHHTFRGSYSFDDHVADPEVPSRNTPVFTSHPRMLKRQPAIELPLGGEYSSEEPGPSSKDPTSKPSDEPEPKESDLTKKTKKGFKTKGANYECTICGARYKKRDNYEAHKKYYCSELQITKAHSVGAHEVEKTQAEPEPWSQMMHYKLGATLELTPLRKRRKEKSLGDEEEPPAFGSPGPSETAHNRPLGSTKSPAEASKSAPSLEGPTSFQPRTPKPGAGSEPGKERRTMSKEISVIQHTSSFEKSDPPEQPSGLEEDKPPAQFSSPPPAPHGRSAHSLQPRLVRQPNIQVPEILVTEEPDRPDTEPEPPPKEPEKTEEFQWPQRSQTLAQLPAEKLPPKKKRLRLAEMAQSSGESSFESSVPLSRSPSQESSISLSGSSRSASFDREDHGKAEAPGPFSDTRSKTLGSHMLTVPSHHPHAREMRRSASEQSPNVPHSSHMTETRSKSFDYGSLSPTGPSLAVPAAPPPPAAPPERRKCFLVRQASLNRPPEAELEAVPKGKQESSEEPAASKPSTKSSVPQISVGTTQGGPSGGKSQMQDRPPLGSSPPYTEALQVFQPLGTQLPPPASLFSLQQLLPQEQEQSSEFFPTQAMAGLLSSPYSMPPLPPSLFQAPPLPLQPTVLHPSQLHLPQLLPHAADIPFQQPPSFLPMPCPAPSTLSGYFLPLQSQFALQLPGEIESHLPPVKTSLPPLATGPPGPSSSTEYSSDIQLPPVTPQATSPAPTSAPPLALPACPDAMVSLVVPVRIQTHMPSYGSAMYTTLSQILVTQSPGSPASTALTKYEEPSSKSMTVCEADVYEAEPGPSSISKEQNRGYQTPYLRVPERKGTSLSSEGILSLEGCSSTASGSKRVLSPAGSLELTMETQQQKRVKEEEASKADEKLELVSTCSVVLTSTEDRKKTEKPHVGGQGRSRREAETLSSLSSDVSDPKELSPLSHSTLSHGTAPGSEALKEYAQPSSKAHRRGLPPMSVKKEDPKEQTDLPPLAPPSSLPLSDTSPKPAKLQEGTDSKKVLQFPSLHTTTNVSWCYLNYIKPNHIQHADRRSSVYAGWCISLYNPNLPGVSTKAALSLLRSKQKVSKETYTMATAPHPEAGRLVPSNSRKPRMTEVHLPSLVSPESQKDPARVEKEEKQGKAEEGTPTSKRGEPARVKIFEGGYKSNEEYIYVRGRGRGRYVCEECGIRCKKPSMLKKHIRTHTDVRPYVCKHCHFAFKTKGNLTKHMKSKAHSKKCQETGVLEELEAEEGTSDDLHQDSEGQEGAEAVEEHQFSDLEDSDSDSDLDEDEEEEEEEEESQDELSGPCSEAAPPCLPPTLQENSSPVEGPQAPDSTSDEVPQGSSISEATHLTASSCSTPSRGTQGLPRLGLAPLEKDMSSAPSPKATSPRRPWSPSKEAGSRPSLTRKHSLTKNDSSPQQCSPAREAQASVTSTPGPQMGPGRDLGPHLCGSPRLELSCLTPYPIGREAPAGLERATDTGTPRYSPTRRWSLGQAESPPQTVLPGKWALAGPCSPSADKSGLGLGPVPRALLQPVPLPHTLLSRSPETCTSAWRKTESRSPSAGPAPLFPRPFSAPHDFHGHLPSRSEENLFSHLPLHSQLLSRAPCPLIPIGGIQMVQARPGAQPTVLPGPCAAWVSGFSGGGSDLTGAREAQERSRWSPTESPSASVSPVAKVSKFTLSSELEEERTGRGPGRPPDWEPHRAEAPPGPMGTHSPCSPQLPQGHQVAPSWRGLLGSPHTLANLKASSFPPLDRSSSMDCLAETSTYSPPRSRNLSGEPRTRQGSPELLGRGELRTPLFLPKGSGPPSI
T1 sequence (Q5T1R4 whole entry): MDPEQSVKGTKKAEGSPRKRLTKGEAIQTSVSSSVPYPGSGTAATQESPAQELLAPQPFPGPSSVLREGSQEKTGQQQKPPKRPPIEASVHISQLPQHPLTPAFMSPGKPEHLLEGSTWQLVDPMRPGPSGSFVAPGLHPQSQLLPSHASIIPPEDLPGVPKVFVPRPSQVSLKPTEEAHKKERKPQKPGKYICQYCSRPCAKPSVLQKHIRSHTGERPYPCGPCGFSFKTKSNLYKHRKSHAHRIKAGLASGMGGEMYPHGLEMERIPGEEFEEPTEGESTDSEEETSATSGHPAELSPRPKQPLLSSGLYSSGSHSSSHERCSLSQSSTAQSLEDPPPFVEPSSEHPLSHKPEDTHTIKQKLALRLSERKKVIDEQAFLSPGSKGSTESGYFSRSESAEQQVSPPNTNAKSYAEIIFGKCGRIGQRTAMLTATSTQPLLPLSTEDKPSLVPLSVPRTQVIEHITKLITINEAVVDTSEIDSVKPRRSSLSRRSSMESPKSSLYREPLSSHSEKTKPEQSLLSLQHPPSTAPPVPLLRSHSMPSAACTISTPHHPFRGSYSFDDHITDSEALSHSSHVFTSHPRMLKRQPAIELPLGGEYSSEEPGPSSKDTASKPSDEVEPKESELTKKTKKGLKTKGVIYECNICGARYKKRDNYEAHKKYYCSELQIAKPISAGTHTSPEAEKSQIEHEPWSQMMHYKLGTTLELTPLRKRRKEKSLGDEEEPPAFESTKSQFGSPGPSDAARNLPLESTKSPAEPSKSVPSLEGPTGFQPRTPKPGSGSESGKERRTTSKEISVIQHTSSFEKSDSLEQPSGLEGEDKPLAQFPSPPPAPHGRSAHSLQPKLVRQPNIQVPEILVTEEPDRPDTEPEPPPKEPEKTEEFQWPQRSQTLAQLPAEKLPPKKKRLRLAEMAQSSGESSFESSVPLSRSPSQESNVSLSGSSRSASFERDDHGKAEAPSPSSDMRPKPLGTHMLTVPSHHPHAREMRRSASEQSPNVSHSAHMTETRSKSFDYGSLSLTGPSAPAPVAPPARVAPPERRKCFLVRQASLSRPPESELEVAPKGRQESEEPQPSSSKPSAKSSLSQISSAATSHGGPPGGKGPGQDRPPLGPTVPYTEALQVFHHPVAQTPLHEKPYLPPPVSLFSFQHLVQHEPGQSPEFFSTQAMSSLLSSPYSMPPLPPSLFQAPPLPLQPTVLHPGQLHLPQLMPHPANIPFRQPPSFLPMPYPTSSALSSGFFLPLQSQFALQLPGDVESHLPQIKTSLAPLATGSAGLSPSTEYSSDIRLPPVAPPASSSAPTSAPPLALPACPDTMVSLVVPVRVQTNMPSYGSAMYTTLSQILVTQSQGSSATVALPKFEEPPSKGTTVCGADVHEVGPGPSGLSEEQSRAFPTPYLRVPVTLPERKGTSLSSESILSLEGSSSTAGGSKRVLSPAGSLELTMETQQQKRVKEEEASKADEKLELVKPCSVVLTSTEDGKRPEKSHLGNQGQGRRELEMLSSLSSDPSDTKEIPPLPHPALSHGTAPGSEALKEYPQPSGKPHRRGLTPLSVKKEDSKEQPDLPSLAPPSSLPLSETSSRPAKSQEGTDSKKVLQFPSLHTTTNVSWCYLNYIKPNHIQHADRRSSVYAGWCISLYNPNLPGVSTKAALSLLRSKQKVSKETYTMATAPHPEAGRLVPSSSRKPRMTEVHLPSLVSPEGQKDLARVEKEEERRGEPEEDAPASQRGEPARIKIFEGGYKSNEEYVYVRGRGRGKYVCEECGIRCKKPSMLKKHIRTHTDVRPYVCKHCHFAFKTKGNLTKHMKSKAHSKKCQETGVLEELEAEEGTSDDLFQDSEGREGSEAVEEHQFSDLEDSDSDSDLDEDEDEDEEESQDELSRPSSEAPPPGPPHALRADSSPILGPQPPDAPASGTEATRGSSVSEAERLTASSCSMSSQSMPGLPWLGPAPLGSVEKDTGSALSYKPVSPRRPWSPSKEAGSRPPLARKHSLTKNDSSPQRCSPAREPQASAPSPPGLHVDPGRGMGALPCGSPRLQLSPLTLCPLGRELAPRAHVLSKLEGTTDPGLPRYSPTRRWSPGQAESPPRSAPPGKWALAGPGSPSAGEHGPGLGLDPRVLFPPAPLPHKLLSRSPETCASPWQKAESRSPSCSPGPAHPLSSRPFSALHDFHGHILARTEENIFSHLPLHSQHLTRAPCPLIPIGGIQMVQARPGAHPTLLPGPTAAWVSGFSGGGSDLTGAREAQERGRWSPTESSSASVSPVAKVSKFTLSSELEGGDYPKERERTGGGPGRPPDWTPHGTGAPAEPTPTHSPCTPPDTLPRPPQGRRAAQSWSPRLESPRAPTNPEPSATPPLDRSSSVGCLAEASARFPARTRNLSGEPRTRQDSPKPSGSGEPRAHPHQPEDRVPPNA

AP-1 luciferase reporter activity in 293T cells overexpressing c-Jun [1]: 5 fold
AP-1 luciferase reporter activity in 293T cells overexpressing c-Jun plus c-Fos (c-Jun/c-Fos AP-1 complex): 5 fold
Molecule: KRC (full-length, overexpressed; tag or construct not further specified), Q5T1R4 1-2406

binding result [2]: binds
B1: endogenous c-Jun of EL4 T cells (other, UniProt P05627 1-334, looked up)
chain: MTAKMETTFYDDALNASFLQSESGAYGYSNPKILKQSMTLNLADPVGSLKPHLRAKNSDLLTSPDVGLLKLASPELERLIIQSSNGHITTTPTPTQFLCPKNVTDEQEGFAEGFVRALAELHSQNTLPSVTSAAQPVSGAGMVAPAVASVAGAGGGGGYSASLHSEPPVYANLSNFNPGALSSGGGAPSYGAAGLAFPSQPQQQQQPPQPPHHLPQQIPVQHPRLQALKEEPQTVPEMPGETPPLSPIDMESQERIKAERKRMRNRIAASKCRKRKLERIARLEEKVKTLKAQNSELASTANMLREQVAQLKQKVMNHVNSGCQLMLTQQLQTF
notes: also called AP-1 complexes

binding result [3]: binds
B2: endogenous c-Jun of Jurkat T cells (other, human, UniProt P05412 1-331, looked up)
chain: MTAKMETTFYDDALNASFLPSESGPYGYSNPKILKQSMTLNLADPVGSLKPHLRAKNSDLLTSPDVGLLKLASPELERLIIQSSNGHITTTPTPTQFLCPKNVTDEQEGFAEGFVRALAELHSQNTLPSVTSAAQPVNGAGMVAPAVASVAGGSGSGGFSASLHSEPPVYANLSNFNPGALSSGGGAPSYGAAGLAFPAQPQQQQQPPHHLPQQMPVQHPRLQALKEEPQTVPEMPGETPPLSPIDMESQERIKAERKRMRNRIAASKCRKRKLERIARLEEKVKTLKAQNSELASTANMLREQVAQLKQKVMNHVNSGCQLMLTQQLQTF
notes: also called AP-1 complexes
